These results are taken from paper PMC11330772, “Unveiling the kinetic versatility of aryl-alcohol oxidases with different electron acceptors” (Frontiers in Bioengineering and Biotechnology, 2024).

Substrate in data set [1]: O=C1C=CC(=O)C=C1
Kind of data set: Steady-state bi-substrate kinetics of alcohol oxidation. The data set is classed as biochemical, Pleurotus eryngii. The note with it: other: PeAAO, alcohol substrate 3-Cl-4-methoxybenzyl alcohol, 50 mM phosphate, pH 6.0, 25 °C. The procedure: (§1) Bi-substrate kinetics were analyzed by concurrently varying the concentration of the aforementioned alcohols and electron acceptors. Oxygen assays were carried out in a screw-cap cuvette where the alcohol was equilibrated with the desired concentration of O2 by bubbling with the appropriate O2/N2 gas mixture (4%, 10%, 21%, 44%, and 100% O2) for 10 min. Alcohol oxidation was initiated by the addition of the enzyme and followed at 285 nm for 4-methoxybenzaldehyde production and 295 nm in the case of 3-Cl-4-methoxybenzaldehyde (Δε285 = 16,950 M^−1cm^−1 and Δε295 = 15,000 M^−1cm^−1, respectively) ([Ferreira et al., 2005]). […]. BQ solutions were prepared immediately prior to use and protected from the light to avoid photodegradation.
(§2) The initial rates for bi-substrate kinetics were fitted to Eq. 1 or Eq. 2, which describe sequential and ping-pong kinetic mechanisms, respectively. […]

Substrate in data set [2]: COc1ccc(CO)cc1Cl
The description is as above. It counts as biochemical, Pleurotus eryngii. The conditions noted are these: other: PeAAO, 50 mM phosphate, pH 6.0, 25 °C. How it is done: as §1, §2

B1: PeAAO (Pleurotus eryngii) (protein)
chain: ADFDYVVVGAGNAGNVVAARLTEDPDVSVLVLEAGVSDENVLGAEAPLLAPGLVPNSIFDWNYTTTAQAGYNGRSIAYPRGRMLGGSSSVHYMVMMRGSTEDFDRYAAVTGDEGWNWDNIQQFVRKNEMVVPPADNHNTSGEFIPAVHGTNGSVSISLPGFPTPLDDRVLATTQEQSEEFFFNPDMGTGHPLGISWSIASVGNGQRSSSSTAYLRPAQSRPNLSVLINAQVTKLVNSGTTNGLPAFRCVEYAEQEGAPTTTVCAKKEVVLSAGSVGTPILLQLSGIGDENDLSSVGIDTIVNNPSVGRNLSDHLLLPAAFFVNSNQTFDNIFRDSSEFNVDLDQWTNTRTGPLTALIANHLAWLRLPSNSSIFQTFPDPAAGPNSAHWETIFSNQWFHPAIPRPDTGSFMSVTNALISPVARGDIKLATSNPFDKPLINPQYLSTEFDIFTMIQAVKSNLRFLSGQAWADFVIRPFDPRLRDPTDDAAIESYIRDNANTIFHPVGTASMSPRGASWGVVDPDLKVKGVDGLRIVDGSILPFAPNAHTQGPIYLVGKQGADLIKADQ
The term Km denotes the substrate concentration at which the rate is half of its maximum. Broadly, the kcat is the maximal rate divided by the concentration of active sites. For B1, the Km in data set [1] amounted to 29 ± 2 µM. In data set [2] (BQ as e− acceptor (anaerobic)), the Km is given as 4 ± 1 µM, the catalytic constant (kcat) turned out to be 21 ± 1 s⁻¹ and the kcat/Km is reported as 5,874 ± 481 s^−1mM^−1. In data set [2] (O2 as e− acceptor), the Km was 11 ± 1 µM, the kcat worked out at 43 ± 1 s⁻¹ and the kcat/Km is given as 3,806 ± 122 s^−1mM^−1.
